Source: patent US5766896A, “Method of producing iodine by use of a copper containing oxidase enzyme” (Novo Nordisk Biotech Inc., priority 1994, dated 1998)

Tests used:
[1] = substrate: CCn1c(=NN=c2sc3cc(S(=O)(=O)O)ccc3n2CC)sc2cc(S(=O)(=O)O)ccc21; experiment: purified protein, by the assay type
[2] = substrate: COc1cc(C=NN=Cc2cc(OC)c(O)c(OC)c2)cc(OC)c1O; experiment: r-MtL syringaldazine oxidation; assay type: biochemical, Myceliophthora thermophila; settings: other: optimal pH (7); 30.0 °C
Description: The extinction coefficient of 36 mM^-1 cm^-1 is used to calculate the rate. Spectroscopic assays are conducted on either a spectrophotometer (Shimadzu UV160) or a microplate reader (Molecular Devices).

[3] = other: optimal pH of 4.1, pH 4.1, 30.0 °C
[4] = other: from dependence of I^- oxidation rates on ABTS concentration, 20.0 °C

B1: ceruloplasmin (porcine plasma) (Sus scrofa) (protein)
chain: KDKHYYIGIVETTWDYASDRGEKKLISVDKEQSNIYLQNGPNRIGRLYKKAIYLQYTDETFRTIIEKPVWLGFLGPIIKAETGDRVYVHFKNFASRPYTFHAHGMTYYKEHEGAIYPDNTTDFQKADDKVHPGEQYTYILHANPEQGPGKEDSNCVTRIYHSHIDAPKDIASGLIGPLIHCRKDSLDKEKEKNIDQEFVVMFSVVDENLSWYLEDNIKTYCSEPEKVEPDNEDFKESNRMYSVNGYSFGSLPGLSMCAEDRVKWYLFGMGNEIDVHAAFFHGQVLTNKNYRIDTINLFPATLFDAFMVAQNPGEWMLSCQNLNHLKAGLQAFFRVQDCKKTSSEDAIHGKHVRHYYIAAEEIIWNYAPSGIDTFTKENLTAPGSASEVFFTRGSTRIGGSYKKLVYREYKDASFTNRKERGPEEEHLGILGPVIWAEVGDTIRVTFRNKGAYPLSIEPTGVRVSKSQEGTYYASHYISSSENVPPSASHVAPKETFTYEWTVPKEVGPTYKDPVCLTKMYYSAVDPTKDIFTGLIGPMKICKKGSLLANGRLKDVDKEFYLFPTVFDENESLLLDDNIQMFTTEPNKVDKENEDFQESNKMHSMNGFMYGNQPGLNMCQGDSVVWYLFSAGNEVDVHGIYFSGNTYLSRGERRDTANLFPQTSLRLFMQPDTAGTFDVECLTTDHYTGGMKQKYTVNQCKQLNENSYLYLGERTYYIAAVEVEWDYSPSREWEKELHHSQERNVSNAFLDKGEFYIGSKYKKVVYRQFTDSTFQVPVQRKAKEEHLGILGPQLHADVGDKVNIVFKNTATRPYSIHAHGVKTESPTVIPTVPGETRTYVWKIPERSGAGIDDSPCIPWVYYSTVDQVKDLYSGLIGPLIVCRKPYLKVFNPIKNLEFSLLFLVFDENESWYLDDNIKTYSDHPEKVDKANDEFIESNKMHAINGRMFGNLQGLTMHVGDEVNWYLMGMGNEIDLHTVHFHGHSFQYQHRGIYTSDVFDIFPGTYQTLEMFPKTSGTWLLHCHVTDHIHAGMETTYTVLPNEETKSG
Km ([1]; other: pH 4.1, pH 4.1, 30.0 °C): 110 ± 40 µM | kcat ([1]; other: pH 4.1, pH 4.1, 30.0 °C): 9.3±1.3 turnover per minute

B2: bilirubin oxidase (Myrothecium verrucaria) (Albifimbria verrucaria) (protein)
chain: VAQISPQYPMFTVPLPIPPVKQPRLTVTNPVNGQEIWYYEVEIKPFTHQVYPDLGSADLVGYDGMSPGPTFQVPRGVETVVRFINNAEAPNSVHLHGSFSRAAFDGWAEDITEPGSFKDYYYPNRQSARTLWYHDHAMHITAENAYRGQAGLYMLTDPAEDALNLPSGYGEFDIPMILTSKQYTANGNLVTTNGELNSFWGDVIHVNGQPWPFKNVEPRKYRFRFLDAAVSRSFGLYFADTDAIDTRLPFKVIASDSGLLEHPADTSLLYISMAERYEVVFDFSDYAGKTIELRNLGGSIGGIGTDTDYDNTDKVMRFVVADDTTQPDTSVVPANLRDVPFPSPTTNTPRQFRFGRTGPTWTINGVAFADVQNRLLANVPVGTVERWELINAGNGWTHPIHIHLVDFKVISRTSGNNARTVMPYESGLKDVVWLGRRETVVVEAHYAPFPGVYMFHCHNLIHEDHDMMAAFNATVLPDYGYNATVFVDPMEELWQARPYELGEFQAQSGQFSVQAVTERIQTMAEYRPYAAADE
Km [1, 3]: 120 ± 10 µM | kcat [1, 3]: 1310±40 turnover per minute

B3: recombinant Myceliophthora thermophila laccase (r-MtL) (Thermothelomyces thermophilus ATCC 42464) (protein)
chain: QQSCNTPSNRACWTDGYDINTDYEVDSPDTGVVRPYTLTLTEVDNWTGPDGVVKEKVMLVNRPTIFADWGDTIQVTVINNLETNGTSIHWHGLHQKGTNLHDGANGITECPIPPKGGRKVYRFKAQQYGTSWYHSHFSAQYGNGVVGAIQINGPASLPYDTDLGVFPISDYYYSSADELVELTKNSGAPFSDNVLFNGTAKHPETGEGEYANVTLTPGRRHRLRLINTSVENHFQVSLVNHTMTIIAADMVPVNAMTVDSLFLGVGQRYDVVIEASRTPGNYWFNVTFGGGLLCGGSRNPYPAAIFHYAGAPGGPPTDEGKAPVDHNCLDLPNLKPVVARDVPLSGFAKRPDNTLDVTLDTTGTPLFVWKVNGSAINIDWGRPVVDYVLTQNTSFPPGYNIVEVNGADQWSYWLIENDPGAPFTLPHPMHLHGHDFYVLGRSPDESPASNERHVFDPARDAGLLSGANPVRRDVTMLPAFGWVVLAFRADNPGAWLFHCHIAWHVSGGLGVVYLERADDLRGAVSDADADDLDRLCADWRHYWPTNPYPKSDSGL
Km [2]: 10 µM | kcat [2]: 400 turnover per minute | Km [1, 4]: 6.4 ± 0.8 µM | kcat [1, 4]: 860±40 turnover per minute | Km ([1]; other: pH 4.1, pH 4.1): 5.6 ± 0.5 µM | kcat ([1]; other: pH 4.1, pH 4.1): 1460±31 turnover per minute
